Reference: US20210221894A1 (DRAGONFLY THERAPEUTICS, published 2021)

T1: human DLL3-His (human, UniProt Q9NYJ7 27-492)
T1 construct: also called hDLL3
T1 sequence: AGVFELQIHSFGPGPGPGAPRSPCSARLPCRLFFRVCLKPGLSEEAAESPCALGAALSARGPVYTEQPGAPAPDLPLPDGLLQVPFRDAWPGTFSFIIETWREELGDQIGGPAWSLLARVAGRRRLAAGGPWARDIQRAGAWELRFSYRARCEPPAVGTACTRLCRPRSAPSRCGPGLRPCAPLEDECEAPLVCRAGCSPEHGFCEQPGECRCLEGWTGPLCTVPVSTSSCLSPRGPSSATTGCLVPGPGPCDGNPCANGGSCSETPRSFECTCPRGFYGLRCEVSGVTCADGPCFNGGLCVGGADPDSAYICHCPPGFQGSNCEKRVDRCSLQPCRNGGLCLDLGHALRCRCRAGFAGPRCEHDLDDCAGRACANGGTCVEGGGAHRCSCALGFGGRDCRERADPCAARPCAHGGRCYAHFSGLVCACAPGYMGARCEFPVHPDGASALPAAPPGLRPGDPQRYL

T2: recombinant mouse NKG2D-Fc fusion protein (mouse; human, UniProt O54709 90-232)
T2 construct: extracellular domain; also called Mouse NKG2D-Fc-biotin; not shown: human IgG1 Fc domain
T2 sequence (looked up): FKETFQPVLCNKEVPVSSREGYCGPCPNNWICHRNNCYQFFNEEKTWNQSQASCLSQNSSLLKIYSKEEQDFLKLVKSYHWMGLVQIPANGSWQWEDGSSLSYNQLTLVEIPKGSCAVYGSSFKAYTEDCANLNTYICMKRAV

T3: recombinant cynomolgus NKG2D-Fc fusion protein (cynomolgus; human, UniProt P61252 73-216)
T3 construct: extracellular domain; not shown: human IgG1 Fc domain
T3 sequence (looked up): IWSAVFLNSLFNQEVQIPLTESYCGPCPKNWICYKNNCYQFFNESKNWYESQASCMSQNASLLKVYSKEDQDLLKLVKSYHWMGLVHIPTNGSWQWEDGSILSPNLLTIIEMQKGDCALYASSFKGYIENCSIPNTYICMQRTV

T4: recombinant human NKG2D-Fc fusion protein (human, UniProt P26718 73-216)
T4 construct: extracellular domain; also called NKG2D-Fc-biotin; not shown: human IgG1 Fc domain
T4 sequence (looked up): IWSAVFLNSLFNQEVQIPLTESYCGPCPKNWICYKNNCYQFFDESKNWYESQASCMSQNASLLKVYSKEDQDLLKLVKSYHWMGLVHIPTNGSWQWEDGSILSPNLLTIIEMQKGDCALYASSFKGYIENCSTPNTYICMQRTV

T5: recombinant human DLL1 (human, UniProt O00548 18-540, limits assumed)
T5 sequence (looked up): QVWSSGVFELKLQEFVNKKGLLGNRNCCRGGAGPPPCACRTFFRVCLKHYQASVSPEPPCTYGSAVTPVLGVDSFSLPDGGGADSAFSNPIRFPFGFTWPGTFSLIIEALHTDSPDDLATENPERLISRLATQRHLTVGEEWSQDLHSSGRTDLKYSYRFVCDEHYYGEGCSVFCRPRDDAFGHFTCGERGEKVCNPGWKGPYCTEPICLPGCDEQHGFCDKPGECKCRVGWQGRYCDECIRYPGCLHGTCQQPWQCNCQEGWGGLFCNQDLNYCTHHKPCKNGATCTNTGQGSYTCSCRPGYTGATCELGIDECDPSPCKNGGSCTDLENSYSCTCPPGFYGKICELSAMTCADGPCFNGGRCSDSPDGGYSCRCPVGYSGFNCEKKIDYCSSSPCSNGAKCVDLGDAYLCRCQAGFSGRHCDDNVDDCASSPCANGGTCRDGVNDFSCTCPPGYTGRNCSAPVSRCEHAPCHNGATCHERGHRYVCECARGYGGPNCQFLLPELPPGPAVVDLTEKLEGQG

T6: recombinant human DLL3 (ELISA coat) (human, UniProt Q9NYJ7 27-492)
T6 sequence: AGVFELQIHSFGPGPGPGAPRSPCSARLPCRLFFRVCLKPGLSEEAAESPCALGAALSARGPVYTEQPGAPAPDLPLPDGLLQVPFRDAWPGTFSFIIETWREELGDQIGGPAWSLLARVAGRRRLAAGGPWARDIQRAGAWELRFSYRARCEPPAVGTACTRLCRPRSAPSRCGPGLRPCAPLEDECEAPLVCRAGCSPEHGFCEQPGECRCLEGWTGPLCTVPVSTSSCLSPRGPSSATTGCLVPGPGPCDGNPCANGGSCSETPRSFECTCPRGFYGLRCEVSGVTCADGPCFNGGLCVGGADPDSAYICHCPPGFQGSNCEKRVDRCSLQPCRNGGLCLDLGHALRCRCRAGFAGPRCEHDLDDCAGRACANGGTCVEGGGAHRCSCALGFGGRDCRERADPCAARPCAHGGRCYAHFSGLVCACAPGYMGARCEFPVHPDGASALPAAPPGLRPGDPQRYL


Assays:
[1] = molecular target: T1, human DLL3-His; experiment: SPR (Biacore 8K), 37 C, antibody captured on anti-human Fc, DLL3-His 0.411-300 nM injected, 1:1 fit
Excerpt: The kinetics of binding of different humanized variants and parental murine 5E7 antibody to human DLL3-His was studied by Surface Plasmon Resonance using a Biacore 8K instrument. Briefly, anti-hFc and anti-mFc IgG proteins were covalently immobilized onto different channels of CMS chip to allow simultaneous analysis of human and murine antibodies. m5E7 was captured on the anti-mouse Fc channel and humanized variants were captured on the anti-human Fc channel at a desired capture level of […] in HBS-EP+ buffer supplemented with 0.1% BSA. Three buffer blanks and human DLL3-His (analyte) at concentrations 0.411-300 nM (in three fold dilutions) were injected over the surface with captured murine or humanized 5E7 for 300 second association time and let dissociate for 600 second at a flow rate of 30 μL/min. The surfaces were subjected to regeneration with three 20-second pulses of 10 mM glycine pH 1.70 at a flow rate of 100 μL/min between every concentration of analyte. The experiment was conducted at 37° C. Data were double referenced and a 1:1 fit model was applied to the sensorgrams in the Biacore Insight Evaluation software.
The kinetic parameters of human DLL3-His binding to murine and humanized variants of 5E7 antibody variants were calculated and shown in Table 39.

[2] = molecular target: T2, recombinant mouse NKG2D-Fc fusion …; experiment: ELISA, plate-bound recombinant mouse NKG2D-Fc, anti-human kappa-HRP/TMB
Excerpt: (§1) The nucleic acid sequences of human, mouse or cynomolgus NKG2D ectodomains were fused with nucleic acid sequences encoding human IgG1 Fc domains and introduced into mammalian cells to be expressed. After purification, NKG2D-Fc fusion proteins were adsorbed to wells of microplates. After blocking the wells with bovine serum albumin to prevent non-specific binding, NKG2D-binding domains were titrated and added to the wells pre-adsorbed with NKG2D-Fc fusion proteins. Primary antibody binding was detected using a secondary antibody which was conjugated to horseradish peroxidase and specifically recognizes a human kappa light chain to avoid Fc cross-reactivity. 3,3′,5,5′-Tetramethylbenzidine (TMB), a substrate for horseradish peroxidase, was added to the wells to visualize the binding signal, whose absorbance was measured at 450 nm and corrected at […]. An NKG2D-binding domain clone, an isotype control or a positive control (comprising heavy chain and light chain variable domains selected from SEQ ID NOs:101-104, or anti-mouse NKG2D clones MI-6 and CX-5, eBioscience, San Diego, Calif.) was added to each well.

[3] = molecular target: T3, recombinant cynomolgus NKG2D-Fc fusion …; experiment: ELISA, plate-bound recombinant cynomolgus NKG2D-Fc, anti-human kappa-HRP/TMB
Excerpt: as §1

[4] = molecular target: T4, recombinant human NKG2D-Fc fusion …; experiment: ELISA, plate-bound recombinant human NKG2D-Fc, anti-human kappa-HRP/TMB
Excerpt: as §1

[5] = molecular target: T5, recombinant human DLL1; experiment: ELISA, plate-bound recombinant human DLL1 (1 µg/mL), anti-mouse IgG-HRP/TMB, % of positive control max
Procedure: (§2) To investigate the binding of anti-DLL3 antibodies to human DLL3, wells of high binding flat-bottom plates were coated with recombinant human DLL3 diluted to 0.5 μg/ml. To assess cross-reactivity of the antibodies to DLL1/DLL4, which are closely related family members to DLL3, plates were coated with recombinant human DLL1 diluted to 1 μg/ml, or human DLL4 diluted to 0.5 μg/ml. […] Binding was detected using anti-mouse IgG-HRP and 3,3′,5,5′-Tetramethylbenzidine (TMB) substrate. Signals were normalized to the corresponding positive control antibody.

[6] = molecular target: T6, recombinant human DLL3 (ELISA coat); experiment: ELISA, plate coated with recombinant human DLL3 0.5 µg/ml, anti-mouse IgG-HRP
Procedure: as §2
Table 38 lists the calculated EC₅₀ based on the binding data from FIG. 24.

| Binder | Kd [1] | koff [1] | kon [1] | binding result [2] | also measured |
| --- | --- | --- | --- | --- | --- |
| humanized anti-DLL3 antibody h5E7-YD-A6 (antibody, V domains shown, Expressed as IgG1 mAb: human IgG1 CH1-CH2-CH3 and human constant kappa; also called A6 variant) VH: QVQLVQSGAEVKKPGASVKVSCKASGFNIKDDYIHWVRQAPGQGLEWMGWIDSENGDTEYASKFQGRVTITADTSANTAYMELSSLRSEDTAVYYCATSSYWSYDLFVYWGQGTLVTVSS VL: DVQMTQSPSSLSASVGDRVTITCKSSQSLLHSNGKTYLNWLQQKPGQAPKLLLYLVSKLESGVPSRFSGSGSGTDYTLTISSLQPEDFATYYCLQTTHLYTFGQGTKLEIK | 1.1 nM | 0.000434 s⁻¹ | 396000 M⁻¹ s⁻¹ | – | – |
| humanized anti-DLL3 antibody h5E7-YD-B5 (antibody, V domains shown, Expressed as IgG1 mAb: human IgG1 CH1-CH2-CH3 and human constant kappa; also called B5 variant) VH: QVQLVQSGAEVKKPGASVKVSCKASGFNIKDDYIHWVRQAPGQGLEWMGWIDSENGDTEYASKFQGRVTITADTSANTAYMELSSLRSEDTAVYYCATSTYWSYDLFVYWGQGTLVTVSS VL: DVQMTQSPSSLSASVGDRVTITCKSSQSLLHSNGKTYLNWLQQKPGQAPKLLLYLVSKLESGVPSRFSGSGSGTDYTLTISSLQPEDFATYYCLQTTHLYTFGQGTKLEIK | 0.27 nM | 0.00013 s⁻¹ | 474000 M⁻¹ s⁻¹ | – | – |
| humanized anti-DLL3 antibody h5E7-YD-C6 (antibody, V domains shown, Expressed as IgG1 mAb: human IgG1 CH1-CH2-CH3 and human constant kappa; also called C6 variant) VH: QVQLVQSGAEVKKPGASVKVSCKASGFNIKDDYIHWVRQAPGQGLEWMGWIDSENGDTEYASKFQGRVTITADTSANTAYMELSSLRSEDTAVYYCATSEYYSYDLFVYWGQGTLVTVSS VL: DVQMTQSPSSLSASVGDRVTITCKSSQSLLHSNGKTYLNWLQQKPGQAPKLLLYLVSKLESGVPSRFSGSGSGTDYTLTISSLQPEDFATYYCLQTTHLYTFGQGTKLEIK | 3.35 nM | 0.00137 s⁻¹ | 409000 M⁻¹ s⁻¹ | – | – |
| humanized anti-DLL3 antibody h5E7-YD-F3 (antibody, V domains shown, Expressed as IgG1 mAb: human IgG1 CH1-CH2-CH3 and human constant kappa; also called F3 variant) VH: QVQLVQSGAEVKKPGASVKVSCKASGFNIKDDYIHWVRQAPGQGLEWMGWIDSENGDTEYASKFQGRVTITADTSANTAYMELSSLRSEDTAVYYCATSSYWSYDLLVYWGQGTLVTVSS VL: DVQMTQSPSSLSASVGDRVTITCKSSQSLLHSNGKTYLNWLQQKPGQAPKLLLYLVSKLESGVPSRFSGSGSGTDYTLTISSLQPEDFATYYCLQTTHLYTFGQGTKLEIK | 1.29 nM | 0.000405 s⁻¹ | 312000 M⁻¹ s⁻¹ | – | – |
| ADI-27705 (antibody, V domains shown) VH: QVQLQQWGAGLLKPSETLSLTCAVYGGSFSGYYWSWIRQPPGKGLEWIGEIDHSGSTNYNPSLKSRVTISVDTSKNQFSLKLSSVTAADTAVYYCARARGPWSFDPWGQGTLVTVSS VL: not shown | – | – | – | binds | binding result [3]: binds; EC50 (read off the curve) [4]: ~0.6 nM |
| ADI-27724 (antibody, V domains shown) VH: QVQLQQWGAGLLKPSETLSLTCAVYGGSFSGYYWSWIRQPPGKGLEWIGEIDHSGSTNYNPSLKSRVTISVDTSKNQFSLKLSSVTAADTAVYYCARARGPWSFDPWGQGTLVTVSS VL: not shown | – | – | – | – | EC50 (read off the curve) [2]: ~8 nM; EC50 (read off the curve) [3]: ~10 nM; EC50 (read off the curve) [4]: ~10 nM |
| ADI-27741 (antibody, V domains shown) VH: QVQLQQWGAGLLKPSETLSLTCAVYGGSFSGYYWSWIRQPPGKGLEWIGEIDHSGSTNYNPSLKSRVTISVDTSKNQFSLKLSSVTAADTAVYYCARARGPWSFDPWGQGTLVTVSS VL: DIQMTQSPSTLSASVGDRVTITCRASQSIGSWLAWYQQKPGKAPKLLIYKASSLESGVPSRFSGSGSGTEFTLTISSLQPDDFATYYCQQSNSYYTFGGGTKVEIK | – | – | – | binds | binding result [3]: binds; binding result [4]: binds |
| ADI-28226 (antibody, V domains shown, also called C26) VH: QVQLQQWGAGLLKPSETLSLTCAVYGGSFSGYYWSWIRQPPGKGLEWIGEIDHSGSTNYNPSLKSRVTISVDTSKNQFSLKLSSVTAADTAVYYCARARGPWSFDPWGQGTLVTVSS VL: DIQMTQSPSTLSASVGDRVTITCRASQSISSWLAWYQQKPGKAPKLLIYKASSLESGVPSRFSGSGSGTEFTLTISSLQPDDFATYYCQQYGSFPITFGGGTKVEIK | – | – | – | binds | EC50 (read off the curve) [3]: ~1 nM; binding result [4]: binds |
| anti-DLL3 antibody clone 10F5 (antibody, V domains shown, Murine antibody from a mouse hybridoma) VH: QLQLVQSGPELMRPGETVKISCKASGYTFTTYGMNWVKQAPGKGLKWVGWINTYSGVPTYADDFKGRFAFSLESSASTAFLQINNLKDEDTATYFCARFGNYGFDCWGQGTTLTVSS VL: DIVMTQSPSSLSVSAGEKVTMSCKSSQSLLNSGNQKNYLAWYQQKPGQPPKLLIYGASTRESGVPDRFTGSGSGTDFTLTISSVQAEDLAVYYCQNDHIYPYTFGGGTKLEIK | – | – | – | – | binding result [5]: no binding; EC50 [6]: 0.64 nM |
